Experimental data published in article PMC8871097.

How the values were obtained:
[1] = target: Pea seed ferritin purified from pea seed milk boiled for 5 min (Pisum sativum (pea)); experiment: native gel or EMSA; Native-PAGE, 5-20% gradient gel, samples not boiled, 180 V, 4 °C, Coomassie brilliant blue R-250; assembly state of the purified ferritin
[2] = target: Pea seed ferritin purified from pea seed milk boiled for 10 min (Pisum sativum (pea)); experiment: as above

stoichiometry N [1]	stoichiometry N [2]	Binder
24	–	Pea seed ferritin purified from pea seed milk boiled for 5 min (natural protein, modifications not checked) TTAPLTGVIFEPFEEVKKDYLAVPSVPLVSLARQNFADECESVINEQINVEYNASYVYHSLFAYFDRDNVALKGFAKFFKESSEEHREHAEKLMKYQNTRGGRVVLHPIKDVPSEFEHVEKGDALYAMELALSLEKLTNEKLLNVHSVAERNNDLEMTHFIEGEYLAEQVEAIKKISEYVAQLRRVGKGHGVWHFDQRLLHGVHGA
–	24	Pea seed ferritin purified from pea seed milk boiled for 10 min (natural protein, modifications not checked) TTAPLTGVIFEPFEEVKKDYLAVPSVPLVSLARQNFADECESVINEQINVEYNASYVYHSLFAYFDRDNVALKGFAKFFKESSEEHREHAEKLMKYQNTRGGRVVLHPIKDVPSEFEHVEKGDALYAMELALSLEKLTNEKLLNVHSVAERNNDLEMTHFIEGEYLAEQVEAIKKISEYVAQLRRVGKGHGVWHFDQRLLHGVHGA
